{
  "source": "patent US10054602B2",
  "about": "“Conjugate of estradiol and applications thereof” (CHRIST UNIVERSITY, priority 2016, dated 2018)",
  "key": {"[1]": {"system": "MCF-7 cells", "test": "inhibition of nuclear entry of estrogen conjugated dye in MCF-7 cells", "type": "cell-based, Human", "method": "The estrogenic activity is examined using human mammary carcinoma MCF-7 cells. The cells are cultured with various concentrations of Diethylstilbestrol (DES) and estrogen conjugated dye for more than 5 days and then the cells were counted.\nA very clear distinction on non-specific binding is observed and the binding is only seen in the cytoplasm."}, "[2]": {"test": "partition coefficient studies", "type": "physicochemical"}, "[3]": {"test": "optical properties of dye (absorption, emission, quantum yield)", "type": "physicochemical", "details": "for Quantum yield φ: ICG as standard; for absorption maxima (wavelength): solvent not stated", "method": "The increased fluorescence quantum yield of the hydrophilic derivatives reduces the risk of the forming fluorescence-quenched aggregation. […] Thus the conjugate can be used for tagging estradiol because of its ability to form monoderivatized activated precursors as it has a carboxylic group which can be tailored to attach to functional groups of biomoloecules like estradiol.\nThe excitation and emission peaks for the conjugate are recorded in the NIR region as 757 nm and 788 nm respectively. The potential of the compound in the application as contrast agents for fluorescence imaging modalities, where the fluorescence emission of the dye is expected to be detectable in high sensitivity above low tissue background is analysed on the breast cancer cell lines MCF-7/MDA-MB-231."}, "[4]": {"test": "tissue kinetics in tumor tissue after injecting", "type": "in vivo", "details": "for half-life: in tumor tissue, read-out: tissue-efflux half-life"}, "[5]": {"system": "MDA-MB-231 [ER-] cells", "test": "NIRF staining / confocal laser microscopy of MDA-MB-231 control cells", "type": "cell-based, Human", "details": "1 μM", "method": "(§1) Human breast cancer cell lines MCF-7 [ER+] and MDA-MB-231 [ER-] are obtained from National Centre for Cell science (NCCS (Pune)). The cells are cultured, revived and the experiments are carried out at Advanced Centre for Treatment, Research and Education in Cancer (ACTREC) of Tata Memorial Centre (Mumbai).\nMCF-7 and MDA-MB-231 cells are cultured in DMEM/F12 medium without phenol red (ACTREC, Mumbai) supplemented with 10% fetal bovine serum. Cells in suspension (50 μl) are added to each well of a 96-well culture plate for a final concentration of 1×10^3 Cells/well and incubated for 24 h at 37° C. in carbon dioxide chamber. […]\nThese cells retained several characteristics of differentiated mammary epithelium including ability to process estradiol via Nuclear and cytoplasmic estrogen receptors and the capability of forming domes. […] The nuclear staining is pivotal towards early detection of cancer as 80% of the breast cancer reported are ER+ and could be detected by this characteristic feature. […]\nThe cell lines are not controlled by the estrogen and lack the estrogen activity in the nucleus. After additional incubation under conditions permitting membrane traffic and thus endocytosis, fast and thorough internalization of ligand-receptor complexes into an intracellular compartment could be detected. […]"}, "[6]": {"molecular_target": "T1, Estrogen receptor (ER) in human breast cancer tissues (Homo sapiens, UniProt P03372)", "T1 construct": "from tissue; host or cells: human breast carcinoma tumor tissue, formalin-fixed paraffin sections", "T1 sequence (P03372 whole entry)": "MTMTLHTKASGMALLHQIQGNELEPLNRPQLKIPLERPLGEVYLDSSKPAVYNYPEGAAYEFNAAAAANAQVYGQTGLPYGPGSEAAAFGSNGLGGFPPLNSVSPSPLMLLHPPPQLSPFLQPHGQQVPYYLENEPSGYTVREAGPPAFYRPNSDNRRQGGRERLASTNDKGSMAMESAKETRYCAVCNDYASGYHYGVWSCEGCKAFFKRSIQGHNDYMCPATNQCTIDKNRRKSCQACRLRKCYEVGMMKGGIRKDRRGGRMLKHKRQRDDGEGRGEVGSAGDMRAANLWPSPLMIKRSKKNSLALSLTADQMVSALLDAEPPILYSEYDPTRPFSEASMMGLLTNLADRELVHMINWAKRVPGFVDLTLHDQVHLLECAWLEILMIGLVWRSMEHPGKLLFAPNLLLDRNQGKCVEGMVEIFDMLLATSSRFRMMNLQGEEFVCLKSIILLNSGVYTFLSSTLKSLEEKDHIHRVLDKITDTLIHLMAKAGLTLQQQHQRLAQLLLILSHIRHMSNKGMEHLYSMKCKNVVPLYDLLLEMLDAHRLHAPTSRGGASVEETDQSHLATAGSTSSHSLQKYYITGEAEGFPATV", "test": "ER staining of breast carcinoma tissue sections", "details": "Non-invasive Ductal, Lobular, Adenocarcinoma and Medullary Carcinoma", "method": "The avidin-biotin-peroxidase complex method is used for the paraffin sections fixed in cold buffered formalin and the results are compared with the ER content in the respective tumor tissue. The specific staining for ER is located exclusively in the nuclei of cancer cells in paraffin sections.\nThe tumor pieces are fixed in buffered formalin (0.1 M sodium phosphate, pH 7.4/10% formalin) for 24 hr at […]. After being rinsed overnight at […]. in 0.1 M sodium phosphate (pH 7.4), they are dehydrated with graded ethanol and embedded in paraffin. Paraffin sections (4 μm) are cut, deparaffinized with xylene, and rinsed thoroughly with absolute ethanol. Then they are soaked in absolute methanol containing 0.3% H2O2 for 30 min at 25° C. to decrease the endogenous peroxidase activity. The sections were washed three times with 50 mM Tris-HCl, pH 7.6/137 mM NaCl (Tris/NaCl) and were incubated with serum (10% in Tris/NaCl) for 30 min at 25° C. so as to reduce the nonspecific staining. Excess serum is removed by blotting. I˜g/ml) or with normal rat IgG (10 A·g/ml) for 30 min at 37° C. After being washed with Tris/NaCl. […]"}, "[7]": {"system": "MCF-7 [ER+] cells", "test": "NIRF staining / confocal laser microscopy of MCF-7 cells", "type": "cell-based, Human", "details": "for cellular localisation / binding of fluorescence: MCF-7 (ER+), confocal microscopy, 1 μM", "method": "as §1\nMCF-7 and MDA-MB-231 cells are cultured in DMEM/F12 medium without phenol red (ACTREC, Mumbai) supplemented with 10% fetal bovine serum. Cells in suspension (50 μl) are added to each well of a 96-well culture plate for a final concentration of 1×10^3 Cells/well and incubated for 24 h at 37° C. in carbon dioxide chamber.\nThe NIRFDC with initial concentration of 24.5 mg/2 ml of DMSO solution is added to each well, and the cultures further incubated for 2 h. The cells are treated at different concentration levels of 1:10, 1:50, 1:100, 1:500 and 1:1000 of DMSO. The cells were then re-suspended in 100 μl of 0.04N HCl/isopropanol solution.\nCell smears are prepared by rolling the swab across the top half of the well of a microscope slide. The opposite side of the swab is rolled over the bottom half of the well. There after the slide is allowed to air dry completely. Then the slide is fixed in chilled (2° to 8° C.) acetone for 10 minutes, which is further removed and allowed to air dry completely. Slides are stored at ≤−20° C. with desiccant. On completion, the cells are re-suspend to at least 400 μL in phosphate buffered saline and 200 μL is applied to each slide by cento-centrifugation at 800 rpm for 4 minutes [Br. J Cancer. 58:77-80, (1988)]. This procedure is repeated for fixing both the cell lines.\nThe smears are stained with the conjugate at different dilutions of 1:10, 1:50, 1:100, 1:500 and 1:1000 and incubated for an hour at about 25° C. Thereafter these cells are given 3 washes of phosphate buffered saline, mounted with DPX (Distrene Plasticyser Xylene) covered and imaged using the Olympus Confocal microscope.\nMCF-7 cells maintained at 37° C. in a 5% CO2 atmosphere in phenol red-free minimal essential medium (MEM) containing 10% charcoal stripped calf serum and penicillin, streptomycin, glutamine, are incubated for 4 days in 24 multiwells (NUNC). After 4 days of culture, the medium is removed and the cells are incubated for 1 hour at 37° C. with […] at concentrations ranging from 0.3 nM to 1 nM. Medium is removed and the cells are washed twice with phosphate buffer saline (PBS). 250 μl of absolute ethanol is added to each well (exposition during 20 min).\nThe in-vitro studies are carried out using the inverted lens Olympus Fluo-View Confocal Microscope. The sample is excited at 754 nm and the emissions are observed using PMT having relatively higher quantum efficiency in the NIR-region.\nThese cells retained several characteristics of differentiated mammary epithelium including ability to process estradiol via Nuclear and cytoplasmic estrogen receptors and the capability of forming domes. MBA-MB-231 breast cancer cell lines are used as the control. […] The nuclear staining is pivotal towards early detection of cancer as 80% of the breast cancer reported are ER+ and could be detected by this characteristic feature. […]\nIn-vitro fluorescence signal of malignant cells bearing estrogen receptor positive with the control (cells without intracellular estrogen receptors) are studied. Fluorescence intensity generated by the NIRF Dye-Conjugate in particular to the nucleus and the entire cell is plotted as shown in the (FIG. 6 A, B). […]"}, "[8]": {"test": "plasma protein binding", "type": "in vitro ADME"}, "[9]": {"system": "cell lines", "test": "toxic effect on the cell lines", "type": "cell-based", "details": "glucosammonium ion in place of sodium ion"}, "[10]": {"details": "ICG as standard; cited from earlier work"}},
  "note": "“Also recorded” adds a separate entry of the source. Like-named read-outs stand apart in the source and are kept apart here.",
  "data": [
    {"compound": "CC/C(=C(/CC)c1ccc(O)cc1)c1ccc(O)cc1", "note": "[Diethylstilbestrol]", "values": [
      {"measurement": "blocking of entry of the estradiol conjugate into the nucleus", "setting": "[1]", "result": "inhibited the entry of the estradiol into the nucleus"},
      {"measurement": "blocking of entry of the estradiol conjugate into the nucleus", "setting": "[1]; listed as DES", "result": "blocking operation of the estrogen conjugated dye from entering the nucleus"}
    ]},
    {"compound": "CC/C(=C(\\c1ccccc1)c1ccc(OCCN(C)C)cc1)c1ccccc1", "note": "[Tamoxifen]", "values": [
      {"measurement": "blocking of entry of the estradiol conjugate into the nucleus", "setting": "[1]", "result": "inhibited the entry of the estradiol into the nucleus; also recorded: blocking operation of the estrogen conjugated dye entering the nucleus"}
    ]},
    {"compound": "CC1(C)C(/C=C/C=C/C=C/C=C2\\N(CCCCS(=O)(=O)O)c3ccc(C(=O)Oc4ccc5c(c4)CCC4C5CC[C@@]5(C)C4CC[C@@H]5O)cc3C2(C)C)=[N+](CCCCS(=O)(=O)[O-])c2ccc(C(=O)Oc3ccc4c(c3)CCC3C4CC[C@@]4(C)C3CC[C@@H]4O)cc21", "note": "(stereo partly drawn) [conjugate]", "values": [
      {"measurement": "partition coefficient", "setting": "[2]", "result": "less than 0.005"},
      {"measurement": "Stokes' shift of fluorescence maximum", "setting": "[3]", "result": 38, "unit": "nm"},
      {"measurement": "Strokes' shift", "setting": "[3]; DMSO", "result": 30},
      {"measurement": "λmax absorption", "setting": "[3]; DMSO", "result": 757, "unit": "nm"},
      {"measurement": "λmax emission", "setting": "[3]; DMSO", "result": 787, "unit": "nm"},
      {"measurement": "Quantum yield φ", "setting": "[3]; DMSO", "result": 0.114},
      {"measurement": "emission peak", "setting": "[3]; NIR region", "result": 788, "unit": "nm"},
      {"measurement": "excitation peak", "setting": "[3]; NIR region", "result": 757, "unit": "nm"},
      {"measurement": "Strokes' shift", "setting": "[3]; PBS", "result": 33},
      {"measurement": "λmax absorption", "setting": "[3]; PBS", "result": 755, "unit": "nm"},
      {"measurement": "λmax emission", "setting": "[3]; PBS", "result": 788, "unit": "nm"},
      {"measurement": "Quantum yield φ", "setting": "[3]; PBS", "result": 0.110},
      {"measurement": "enhancement of fluorescence quantum yields with respect to ICG", "setting": "[3]; physiological environment", "result": "7-15%"},
      {"measurement": "absorption maxima (wavelength)", "setting": "[3]", "result": 757},
      {"measurement": "initial tissue absorption coefficient compared to ICG", "setting": "[4]; in vivo", "result": "two-fold higher"},
      {"measurement": "half-life", "setting": "[4]; other: injection (kind of injection not stated)", "result": 1.22, "unit": "h"},
      {"measurement": "tumor-to-tissue concentration gradient", "setting": "[4]; up to one hour after injecting", "result": "elevated tumor-to-tissue concentration gradient for up to one hour after injecting"},
      {"measurement": "cellular localisation / binding of fluorescence", "setting": "[5]", "result": "only the plasma membrane staining"},
      {"measurement": "cellular localisation / binding of fluorescence", "setting": "[5]; listed as NIRFDC", "result": "poor binding of conjugate into the nucleus"},
      {"measurement": "ER staining of carcinoma tissue", "setting": "[6]", "result": "ER staining which are confined to the nuclei"},
      {"measurement": "signal intensity of MCF-7 cells compared to MDA-MB-231", "setting": "[7]; 24 h", "result": "~2.4", "unit": "fold"},
      {"measurement": "cellular localisation / binding of fluorescence", "setting": "[7]", "result": "specific high affinity binding sites of estrogen molecule on to the nucleus and membrane"},
      {"measurement": "cellular localisation / binding of fluorescence", "setting": "[7]; listed as NIRFD-conjugate", "result": "majority of the receptor-associated fluorescence co-localized at the Nucleus and a minority in the plasma membrane"},
      {"measurement": "cellular localisation / binding of fluorescence", "setting": "[7]; listed as NIRFDC", "result": "very clear localization of conjugated dye in the nucleus; also recorded: significant amount of binding is seen in the nucleus"},
      {"measurement": "fraction unbound", "setting": "[8]", "result": "> 0.5"},
      {"measurement": "toxic effect on the cell lines", "setting": "[9]", "result": "reduce the toxic effect on the cell lines"}
    ]},
    {"compound": "CC1(C)C(/C=C/C=C/C=C/C=C2\\N(CCCCS(=O)(=O)O)c3ccc4ccccc4c3C2(C)C)=[N+](CCCCS(=O)(=O)[O-])c2ccc3ccccc3c21", "note": "[ICG, Indocyanine Green, reference compound]", "values": [
      {"measurement": "quantum yield φ of the standard", "setting": "[10]", "result": 0.13},
      {"measurement": "absorption maxima (wavelength)", "setting": "[3]", "result": 780},
      {"measurement": "half-life", "setting": "[4]; other: injection (type not specified)", "result": "< 0.167", "unit": "h"},
      {"measurement": "cellular localisation / binding of fluorescence", "setting": "[7]", "result": "only stains the cells without entering the nucleus of the cell"}
    ]}
  ]
}
